Assay results reported in patent US11419837B2, “Modified release orally administered amino acid formulations” (APR APPLIED PHARMA RESEARCH S.A., priority 2015, dated 2022).

What was measured:
[1] = In vivo bioavailability in pig: mean of analyzed essential amino acid plasma concentrations; details: ESSENTIAL AA (RAW DATA), pigs, oral by gavage, 0.8 g of amino acid/kg body weight
Procedure: (§1) The following formulations were tested: • APR-04 (bkT037/72-4) • APR-07 (bkT037/73-7) • Free amino acid (bkT037/71) • Casein In Vivo Study Design: • Subjects: 8 pigs • Design: 4 formulations in crossover • Administration route and method: oral, by gavage. The product dose was administered to each animal mixed with a small amount of water (300 ml) in order to ensure fast (≤5 minutes) assumption. The total amount of the product was administered using syringes. The animals were fasted for 13.5±0.5 hours before the treatment and the access to water was suspended one hour before and one hour after the treatment. • Dose, frequency and duration of administration: The amount of product administered was based on body-weight and equaled 0.8 g of amino acid/kg body weight for each test product. The products were administered by a single administration in the morning of each day of treatment. • Wash out: 48-72 hours • Blood sampling: 0.75 h before Treatment (T), 0.5 h before T, 0.25 h before T, 0.25 h after T, 0.5 h after T, 0.75 h after T, 1 h after T, 1.25 h after T, 1.5 h after T, 2 h after T, 2.5 h after T, 3 h after T, 4 h after T, 5 h after T • Analysis: The plasma concentrations of 14 amino acids (Alanine, Arginine, Glutamine, Glycine, Histidine, Isoleucine, Leucine, Lysine, Proline, Serine, Threonine, Tryptophan, Tyrosine, Valine) were measured and analyzed. Methionine and Aspartic acid were excluded from the analysis due to stability issues. The following parameters were evaluated: Area Under the concentration/time Curve (AUC0-last), peak concentration (Cmax), time to peak concentration (Tmax) and Clast. The behavior of the two APR Formulations was compared to the formulation of Free Amino Acids and Casein. Results:
The amino acids aggregated together for analysis were Arginine, Histidine, Isoleucine, Leucine, Threonine, Lysine, Tryptophan and Valine. This subgroup was chosen for analysis because these amino acids cannot be endogenously synthesized. As a result, their concentrations in plasma from sampling the jugular vein may be more representative of the intestinal adsorption of the tested formulations than the non-essential amino acids whose presence in blood could be independently generated by the organism.
The statistical analysis for the date reported in Table 14c (for AUC, Cmax, and Clast: one-way repeated measures ANOVA with post hoc analysis with Bonferroni adjustment; for Tmax: Friedman test followed by multiple sign test for pairwise comparison) is reported in Table 14d.

[2] = In vivo bioavailability in pig: large neutral amino acid (LNAA) plasma concentrations; details: LNAA (RAW DATA), pigs, oral by gavage
Procedure: as §1
The amino acids aggregated together for analysis were tryptophan, threonine, valine, isoleucine, leucine, histidine. […] Phenylalanine was excluded from the analysis because it was not present in the formulations tested. This subgroup of essential amino acids was chosen for analysis because LNAA share with phenylalanine a common transport system in order to enter the brain. High plasma concentration of LNAAs may reduce the uptake into the brain(Van Spronsen et al). might thus bring clinical advantages. In particular, if the analysis on the subgroup show an increased Clast for the APR formulations versus the free amino acid formulations, it can be speculated that the patient may have a sort of “prolonged protection/tolerance” to phenylalanine.

[3] = In vivo bioavailability in pig: mean aggregate plasma concentrations of 14 amino acids; details: pigs, oral by gavage; for AUC 0-last / Cmax: 0.8 g of amino acid/kg body weight
Procedure: as §1, with “Results: […]” for “Results:”

[4] = In vivo bioavailability in pig: mean of branched chain amino acid (BCAA) plasma concentrations; details: BCAA (RAW DATA), pigs, oral by gavage, 0.8 g of amino acid/kg body weight
Procedure: as §1
The amino acids aggregated together for analysis were valine, isoleucine and leucine. This subgroup of essential amino acids was chosen for analysis because these essential amino acids are unique among amino acids in that their first catabolic step cannot occur in the liver. As a consequence, they largely escape first-pass splanchnic metabolism (Brosnan et al).
The statistical analysis for the date reported in Table 14e (for AUC, Cmax, and Clast: one-way repeated measures ANOVA with post hoc analysis with Bonferroni adjustment; for Tmax: Friedman test followed by multiple sign test for pairwise comparison) is reported in Table 14f

[5] = tryptophan, threonine, valine, isoleucine, leucine, histidine, 0.8 g of amino acid/kg
[6] = 14 AA (BC DATA, basal values subtracted)
[7] = 14 AA (RAW DATA, basal values not subtracted)

Question: For Casein, which Clast ([1]; last sampling (5h)) is on record?
Answer: 153.0

Question: And the “AUC 0-last” value [1]?
Answer: 969.9

Question: And the Cmax [1]?
Answer: 299 µM

Question: What about the Tmax [1] of the same substance?
Answer: 1.16 h

Question: And the Clast ([2]; last sampling (5h), 0.8 g of amino acid/kg body weight)?
Answer: 143.0

Question: And the “AUC 0-last” value [2, 5]?
Answer: 868.9

Question: What about the Cmax [2, 5] of the same substance?
Answer: 257 µM

Question: What about the Tmax [2, 5] of the same substance?
Answer: 1.16 h

Question: And the “AUC 0-last” value [3, 6]?
Answer: 258.9

Question: What about the Cmax [3, 6] of the same substance?
Answer: 147 µM

Question: And the Clast ([3]; 14 AA (RAW DATA), plasma concentration at the last sampling (5h), 0.8 g of amino acid/kg)?
Answer: 172.9

Question: What about the “AUC 0-last” value [3, 7] of the same substance?
Answer: 1125.6

Question: And the Cmax [3, 7]?
Answer: 325 µM

Question: What about the Clast ([4]; last sampling (5h)) of the same substance?
Answer: 228.7

Question: And the “AUC 0-last” value ([4]; valine, isoleucine and leucine)?
Answer: 1365.3

Question: And the Cmax ([4]; valine, isoleucine and leucine)?
Answer: 401 µM

Question: And the Tmax ([4]; valine, isoleucine and leucine)?
Answer: 1.16 h
